One molecule from paper PMC8262916 can be followed below.

One data set deals with Nsp12A;Nsp7;Nsp8 (SARS-CoV-2;SARS-CoV-2;SARS-CoV-2, UniProt P0DTD1;P0DTD1;P0DTD1 4393-5324;3860-3942;3943-4140, ||). Description: EMSA; 2 mM Mg2+; 100 nM RNA.
The next data set concerns the target Nsp12T;Nsp7;Nsp8 (SARS-CoV-2;SARS-CoV-2;SARS-CoV-2, UniProt P0DTD1;P0DTD1;P0DTD1 4393-5324;3860-3942;3943-4140, ||). Nature of the data set: EMSA. (In EMSA bound probe runs differently from free probe, usually more slowly.)

For UUUUCAUGCUACGCGUAGUUUUCUACGCG (structured_RNA) [4N RNA hairpin scaffold], the binding result in the data set with Nsp12A;Nsp7;Nsp8 and in the data set with Nsp12T;Nsp7;Nsp8 was “binds” each time.
